The values below come from article PMC10234410, “Regulation of intestinal stem cell activity by a mitotic cell cycle regulator Polo in Drosophila”.

The target in the data set is Sox21aHMG-BD (Drosophila melanogaster, UniProt M9PFG6 108-208). Briefly: EMSA; 25 mM HEPES pH 7.5, 40 mM KCl, 3 mM DTT, 10% glycerol, 0.1 mM EDTA, 0.5 mg/ml BSA, 0.5 mg/ml poly-glutamate, 25 C, 30 min; 6% native PAGE. Particulars: protein: recombinant; tags: His-tag at C-terminus (pET-28b); label: Cy5. (In EMSA bound probe runs differently from free probe, usually more slowly.)
Sox21aHMG-BD, sequence (M9PFG6 entry or part of it): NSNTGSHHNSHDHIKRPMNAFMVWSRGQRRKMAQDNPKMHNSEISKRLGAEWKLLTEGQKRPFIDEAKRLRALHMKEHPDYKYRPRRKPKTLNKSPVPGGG

B1: F2-4-3 wild-type probe (dsDNA)
DNA 1: GAATTTGTTGTTCAACACTCAACAAAATACCGCGATACATACCAGAAAGTGTGCGATAGC
DNA 2: GCTATCGCACACTTTCTGGTATGTATCGCGGTATTTTGTTGAGTGTTGAACAACAAATTC
B1: the binding result is given as “binds”.

B2: F2-4-3 mutant probe (dsDNA)
DNA 1: GAACGCACGAGCAGACACTCAACAAAATACCGCGATACATACCAGAAAGTGTGCGATAGC
DNA 2: GCTATCGCACACTTTCTGGTATGTATCGCGGTATTTTGTTGAGTGTCTGCTCGTGCGTTC
On to B2, for which the binding result was “no binding”.
